From patent US20040052799A1, “Nucleic acid and amino acid sequences relating to Helicobacter pylori for diagnostics and therapeutics” (Astra Aktiebolag, priority 1996, published 2004)

How the values were obtained:
H. pylori MurC = target: T1, H. pylori MurC (Helicobacter pylori, UniProt Q9ZLL2); test: MurC continuous assay, ADP formation coupled to pyruvate kinase/lactate dehydrogenase; assay type: biochemical; conditions: 500 μM UDP-N-acetylmuramate, 1 mM L-alanine, 1 mM ATP, 0.0018 mg/ml MurC, 37° C.
T1 sequence (Q9ZLL2 1-449): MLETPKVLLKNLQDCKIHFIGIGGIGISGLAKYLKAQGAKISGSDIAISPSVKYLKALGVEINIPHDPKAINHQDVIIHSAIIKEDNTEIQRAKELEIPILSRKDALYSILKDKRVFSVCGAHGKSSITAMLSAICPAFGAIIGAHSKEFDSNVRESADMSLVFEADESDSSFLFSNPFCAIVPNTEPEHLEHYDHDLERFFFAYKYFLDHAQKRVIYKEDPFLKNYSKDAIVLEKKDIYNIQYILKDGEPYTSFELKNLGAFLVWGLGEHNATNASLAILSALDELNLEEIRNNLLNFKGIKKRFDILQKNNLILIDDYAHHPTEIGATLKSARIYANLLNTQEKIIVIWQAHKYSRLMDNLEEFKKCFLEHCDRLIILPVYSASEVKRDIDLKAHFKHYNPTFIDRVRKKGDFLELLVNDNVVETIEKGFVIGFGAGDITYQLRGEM
Procedure: Purified H. pylori MurC was assayed using a continuous assay by coupling ADP formation with NADH oxidation by the pyruvate kinase/lactate dehydrogenase enzyme couple. Assay conditions were as follows: 100 mM Tris·HCl pH 8.0, 2.5 mM 2-mercaptoethanol, 20 mM KCl, 10 mM DTT, 2 mM MgCl2, 10 mM PEP, 0.15 mM NADH, 3.5 units of pyruvate kinase, 5.5 units of lactate dehydrogenase (Sigma), 500 μM UDP-N-acetylmuramate, 1 mM L-alanine, 1 mM ATP and 0.0018 mg/ml MurC at 37° C. […] Previously boiled enzyme could not support ADP formation. Steady state analysis of the dependence of reaction velocity on substrate concentration was done by varying the concentration of a single substrate in concentrations ranging from 0.5 to 5 times Km while holding the other two substrates constant at 5 times Km concentrations.

H. pylori Asd = H. pylori Asd (Helicobacter pylori, UniProt Q9ZK28); test: Asd assay, reverse reaction, NADPH formation
Procedure: The enzymatic activity of purified His-tagged H. pylori Asd (SEQ ID NO: 6545) was characterized by assaying the reverse reaction of phosphorylation of L-aspartate-β-semialdehyde (ASA) to L-p-aspartyl phosphate, with concomitant reduction of NADP^+ to NADPH. The formation of NADPH was detected by its absorbance, 340 nm, or by its fluorescence, excitation =340 nm, emission 455 nm.
ASA in 4 N HCl was prepared daily for use in Asd assays by partial neutralization with addition of 1.0 equivalent of […], with a resulting pH=1-2. The amount of ASA was determined enzymatically by complete reaction in the presence of excess NADP^+and phosphate. […] Assays were performed in the following buffer: 200 mM HEPES, 0.3 mM NADP^+, 30 mM NaH2PO4, 1.0 mM DTT, pH 7.5 or pH 8.0. ASA was used in the assay at concentrations of 5-165 μM by diluting the partially-neutralized ASA stock into the assay 10-200 fold, leading to a decrease in pH of 0.1 units or less. Reaction was initiated with the addition of enzyme to a final concentration of 3.5-70 nM.

[1] = target: T2, H. pylori glutamate racemase (murI gene product) (Helicobacter pylori, UniProt Q9ZLT0); test: Glutamate racemase activity, conversion of D-glutamate to L-glutamate (two enzyme and single enzyme coupled assays); assay type: biochemical; conditions: purified recombinant enzyme
T2 construct: made in house; host or cells: E. coli BL21(DE3) carrying pET-23-murI and pACYC-groE (GroES/GroEL co-expressed)
T2 sequence (Q9ZLT0 1-255): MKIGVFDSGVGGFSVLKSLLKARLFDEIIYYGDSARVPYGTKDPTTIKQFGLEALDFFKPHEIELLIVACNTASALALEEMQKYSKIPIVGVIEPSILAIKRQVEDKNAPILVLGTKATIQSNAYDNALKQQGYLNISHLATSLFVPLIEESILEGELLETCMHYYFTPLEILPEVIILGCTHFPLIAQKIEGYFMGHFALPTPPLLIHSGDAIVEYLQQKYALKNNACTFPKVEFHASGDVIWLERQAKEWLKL
Procedure: The activity of glutamate racemase, interconversion of the enantiomers of glutamic acid, was measured using D-glutamic acid as substrate. The method of Gallo and Knowles (Gallo, K. A. and Knowles, J. R., 1993, Biochmistry 32, 3981-3990) that was used to measure the glutamate racemase activity of Lactobacillus fermenti was adapted for the measurement of glutamate racemase activity of the H. pylori murI gene product isolated as a recombinant protein from E. coli. […] Initial rates were determined by following the increase in absorbance at 500 nm in a reaction volume of 200 μl containing 50 mM Tris-HCl, pH 7.8, 4% v/v glycerol, 10 mM NAD, 2 mM INT, 60 Units/ml L-glutamate dehydrogenase, 5 Units/ml diaphorase, and varying concentrations of either substrate (from 0.063 mM to 250 mM D-glutamic acid) or purified enzyme (from 1 μg to 50 μg). After a preincubation of all reagents except either the substrate (D-glutamic acid) or the enzyme (murI gene product) for a period of 5 minutes, reactions were initiated by adding the missing ingredient (i.e., the enzyme or the subtrate, as required), and the increase in optical density at 500 nm was measured in a Microplate Spectophotometer System (Molecular Devices, Spectra MAX 250). Measurements were followed for 20 minutes, and initial velocities were derived by calculating the maximum slope for the absorbance increases. […]

B1: H. pylori MurC: His-tagged H. pylori MurC (SEQ ID NO: 7607) purified from E. coli (protein, listed as Helicobacter pylori)
chain: MLETPKVLLKNLQDCKIHFIGIGGIGISGLAKYLKAQGAKISGSDIAISPSVKYLKALGVEINIPHDPKAINHQDVIIHSAIIKEDNTEIQRAKELEIPILSRKDALYSILKDKRVFSVCGAHGKSSITAMLSAICPAFGAIIGAHSKEFDSNVRESADMSLVFEADESDSSFLFSNPFCAIVPNTEPEHLEHYDHDLERFFFAYKYFLDHAQKRVIYKEDPFLKNYSKDAIVLEKKDIYNIQYILKDGEPYTSFELKNLGAFLVWGLGEHNATNASLAILSALDELNLEEIRNNLLNFKGIKKRFDILQKNDLILIDDYAHHPTEIGTTLKSARIYANLLNTQEKIIVIWQAHKYSRLMDNLEEFKKCFLEHCDRLIILPVYSASEVKRDIDLKAHFKHYNPTFIDRVRKKGDFLELLVNDNVVETIEKGFVIGFGAGDITYQLRGEM
modifications: His tag; misc_feature (B) LOCATION 1...449; hypothetical: YES
Q: For B1, which specific activity (H. pylori MurC) is on record?
A: 5900 nmol/min/mg

B2: H. pylori Asd: purified His-tagged H. pylori Asd (SEQ ID NO: 6545) (protein, listed as Helicobacter pylori)
chain: MKTYNVAIVGASGAVGQELIKGLENSFFPIKKFVPLASARSAGKKIRAFNKDYEILETTHEVFEKEEIDIAFFSAGGSVSEEFAISASKTALVIDNTSFFRLNKDVPLVVPEINAQEIFNAPLNIIANPNCSTIQMTQILNPLHLHFKIKSVIVSTYQAVSGAGNKGIESLKNELKTALEHLEKDPAIDLNQVLQAGAFAYPIAFNAIAHIDTFKENGYTKEELKMVHETHKIMGVDFPISATCVRVPVLRSHSESLSIAFEKEFDLKEVYEVLKNAPSVVVCDDPSHNLYPTPLKASHTDSVFIGRLRKDLFDKKTLHGFCVADQLRVGAATNALKIALHYIKNA
modifications: His tag; misc_feature (B) LOCATION 1...346; hypothetical: YES
Q: Which “decrease of kcat relative to the E. coli enzyme” value (H. pylori Asd) does the source give for B2 here?
A: about 5 fold

Q: What about the “effect of ionic strength on activity” value (H. pylori Asd; ionic strength as high as 0.7 M) of the same molecule?
A: unaffected

Q: And the kcat (H. pylori Asd; pH 8.0)?
A: 5.4 s⁻¹

B3: H. pylori glutamate racemase: purified recombinant H. pylori glutamate racemase (SEQ ID NO: 7635) (protein, listed as Helicobacter pylori)
chain: MKIGVFDSGVGGFSVLKSLLKARLFDEIIYYGDSARVPYGTKDPTTIKQFGLEALDFFKPHEIELLIVACNTASALALEEMQKYSKIPIVGVIEPSILAIKRQVEDKNAPILVLGTKATIQSNAYDNALKQQGYLNISHLATSLFVPLIEESILEGELLETCMHYYFTPLEILPEVIILGCTHFPLIAQKIEGYFMGHFALPTPPLLIHSGDAIVEYLQQKYALKNNACTFPKVEFHASGDVIWLERQAKEWLKL
modifications: misc_feature (B) LOCATION 1...255; hypothetical: YES
Q: What does the source list for B3?
A: kcat [1]: 0.143 s⁻¹; Vmax ([1]; D-glutamate substrate): ~300 nmoles/min/mg protein
